Target: the molecule itself
Assay: cryo-EM structure; purified apo Rpd3S complex; 3D map of 3.5 Å

B1: Rco1 (natural protein, Saccharomyces cerevisiae, UniProt Q04779 1-684, looked up)
chain: MDTSKKDTTRSPSHSNSSSPSSSSLSSSSSKEKKRPKRLSSQNVNYDLKRRKIITSEGIERSFKNEHSNLAVEDNIPEEEPKELLEKDSKGNIIKLNEPSTISEDSKVSVTGLPLNKGPSEKIKRESLWNYRKNLGGQSNNSEMTLVPSKRFTQVPKNFQDLNRNDLKTFLTENMTEESNIRSTIGWNGDIINRTRDREPESDRDNKKLSNIRTKIILSTNATYDSKSKLFGQNSIKSTSNASEKIFRDKNNSTIDFENEDFCSACNQSGSFLCCDTCPKSFHFLCLDPPIDPNNLPKGDWHCNECKFKIFINNSMATLKKIESNFIKQNNNVKIFAKLLFNIDSHNPKQFQLPNYIKETFPAVKTGSRGQYSDENDKIPLTDRQLFNTSYGQSITKLDSYNPDTHIDSNSGKFLICYKCNQTRLGSWSHPENSRLIMTCDYCQTPWHLDCVPRASFKNLGSKWKCPLHSPTKVYKKIHHCQEDNSVNYKVWKKQRLINKKNQLYYEPLQKIGYQNNGNIQIIPTTSHTDYDFNQDFKITQIDENSIKYDFFDKIYKSKMVQKRKLFQFQESLIDKLVSNGSQNGNSEDNMVKDIASLIYFQVSNNDKSSNNKSASKSNNLRKLWDLKELTNVVVPNELDSIQFNDFSSDEIKHLLYLKKIIESKPKEELLKFLNIENPENQSE
notes: Rco1, Saccharomyces cerevisiae; two copies (Rco1A, Rco1B) stand in the Rpd3S complex; also called Rco1A; Rco1B; source: High Five insect cells (baculovirus), co-expressed with the other Rpd3S subunits; purified as part of the complex (streptavidin column, Resource Q, gel filtration); not shown: double StrepII, C-terminal, kept
Question: Does B1 bind?
Answer: binds
